Data on 4 molecules can be found in publication PMC5027486 (Nucleic Acids Research, 2016).

Usually stoichiometry N stands for the number of molecules, sites or subunits per partner or assembly. For orientation: koff means the first-order rate constant of dissociation. Lower therefore signals a long-lived complex. One may read the kon as the rate constant with which the complex forms. Read a low kon as slower complex formation. For orientation: Kd means a measure of binding affinity in units of concentration. Higher therefore signals weaker binding.

The labels stand for the following.
B1: Pseudomonas aeruginosa mismatch repair protein MutS (natural protein, UniProt Q9HY08 1-855, looked up)
chain: MTDLSQHTPMMQQYFKLKHQHPDQLMFYRMGDFYELFYEDAKKAAKLLDITLTARGQSGGKAIPMAGIPFHSAEGYLAKLVKLGESVAICEQIGDPATSKGPVERQVVRIITPGTVSDEALLDERRDNLLAAILGDERLFGLAVLDITSGRFSVQEIKGWETLLAELERLNPAELLIPDDWPQGLPAEKRRGVRRRAPWDFDRDSAHKSLCQQFGTQDLKGFGCQNLTLAIGAAGCLLAYAKETQRTALPHLRSLRHDRLDDTVILDGASRRNLELDINLSGGRENTLQSVVDRCQTAMASRLMSRWLNRPLRDRAVLEARQESIACLLERYRFENLQPQLKEIGDLERILARIGLRNARPRDLARLRDALAALPDLQNAMTELEAPHLQALATTIGTYPELAELLAKAIIDNPPAVIRDGGVIKTGYDAELDELQALSENAGQFLMDLEAREKARTGLPNLKVGYNRIHGYFIELPRVQAEQAPADYIRRQTLKGAERFITPELKAFEDKALSAQSRALAREKALYEELLERLIGHLAPLQDSASALAELDVLANLAERALNLDLNRPRFVEHTCLHIEQGRHPVVEQVLETPFVANDLALDADTRMLVITGPNMGGKSTYMRQTALIVLLAHIGSFVPAARCELSLVDRIFTRIGSSDDLAGGRSTFMVEMSETANILHNATDKSLVLMDEVGRGTSTFDGLSLAWAAAEDLARTRAFTLFATHYFELTVLPESQPAVANVHLNATEHNERIVFLHHVLPGPASQSYGLAVAQLAGVPAPVIQRAREHLKRLETTSLPHEMPSQQSGKPASPMQSDLFASLPHPVIDELSRINPDDISPRQALDLLYAWKMRV
B2: Pseudomonas aeruginosa β clamp processivity factor (natural protein, UniProt Q9I7C4 1-367, looked up)
chain: MHFTIQREALLKPLQLVAGVVERRQTLPVLSNVLLVVEGQQLSLTGTDLEVELVGRVVLEDAAEPGEITVPARKLMDICKSLPNDVLIDIRVEEQKLLVKAGRSRFTLSTLPANDFPTVEEGPGSLNFSIAQSKLRRLIDRTSFAMAQQDVRYYLNGMLLEVNGGTLRSVATDGHRLAMCSLDAQIPSQDRHQVIVPRKGILELARLLTEQDGEVGIVLGQHHIRATTGEFTFTSKLVDGKFPDYERVLPRGGDKLVVGDRQQLREAFSRTAILSNEKYRGIRLQLSNGLLKIQANNPEQEEAEEEVQVEYNGGNLEIGFNVSYLLDVLGVIGTEQVRFILSDSNSSALVHEADNDDSAYVVMPMRL

In experiment [1] the target is B2. The experiment is described as follows: native gel or EMSA. A general note: Mobility shift assays separate free from complexed probe on a gel.
Experiment [2] concerns the target B2. The experiment is described as follows: native gel or EMSA. This is another data set of the same source.
For experiment [3], the target named is B1. The experiment is described as follows: SPR. (SPR reads the build-up and loss of mass on a sensor chip optically.)
For experiment [4], the target named is B1. The experiment is described as follows: native gel or EMSA.
The target of experiment [5] is B2. The experiment is described as follows: SPR.

Turning to MQSDLFA [MQSDLFA peptide (7-mer spanning the β clamp binding motif of MutS)], the binding result in experiment [1] is recorded as “binds”.

For B1, the “stoichiometry N” value in experiment [2] is 4.

As to B2, in experiment [3], the koff turned out to be 0.111 s⁻¹ and the kon stood at 112000 M⁻¹ s⁻¹. For the same molecule, in experiment [4], the Kd stood at 1.66 ± 0.09 µM.

B3: Pseudomonas aeruginosa DNA polymerase IV (Pol IV) (enzyme, UniProt Q9I534 1-349, looked up)
chain: MRKIIHIDCDCFYAALEMRDDPSLRGKALAVGGSPDKRGVVATCSYEARAYGVRSAMAMRTALKLCPDLLVVRPRFDVYRAVSKQIHAIFRDYTDLIEPLSLDEAYLDVSASPHFAGSATRIAQDIRRRVAEELHITVSAGVAPNKFLAKIASDWRKPDGLFVITPEQVDGFVAELPVAKLHGVGKVTAERLARMGIRTCADLRQGSKLSLVREFGSFGERLWGLAHGIDERPVEVDSRRQSVSVECTFDRDLPDLAACLEELPTLLEELDGRLQRLDGSYRPDKPFVKLKFHDFTQTTVEQSGAGRDLESYRQLLGQAFARGNRPVRLIGVGVRLLDLQGAHEQLRLF
For B3, in experiment [5], binding was put at a Kd of 8.97 µM, the koff came to 0.0052 s⁻¹ and the kon is 580 M⁻¹ s⁻¹. Further, in experiment [2], the Kd came out at 6.22 ± 0.51 µM and the “stoichiometry N” value came out at 1.09 ± 0.06.
